Source: patent US20100034737A1 (published 2010)

Target: T1, mouse JAM-C on the surface of GL261-233R (JAM-C rescued) and GL261-233RC (JAM-C knock-down) mouse glioma cells (mouse, UniProt Q9D8B7 30-310)
T1 construct: whole, on cells; also called JAM-C on the surface of glioma cells
T1 sequence (looked up): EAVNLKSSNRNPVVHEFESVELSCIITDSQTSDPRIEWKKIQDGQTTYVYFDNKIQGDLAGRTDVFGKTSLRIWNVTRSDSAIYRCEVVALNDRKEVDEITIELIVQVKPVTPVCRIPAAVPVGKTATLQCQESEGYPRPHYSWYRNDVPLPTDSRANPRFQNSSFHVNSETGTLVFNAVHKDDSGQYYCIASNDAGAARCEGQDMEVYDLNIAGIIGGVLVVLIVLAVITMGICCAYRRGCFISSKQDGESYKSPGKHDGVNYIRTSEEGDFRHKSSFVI
Assay: flow cytometry of sJAM-B-Fc on GL261-233RC and GL261-233R cells (FIG. 22 A, B) and c-Src ELISA
Procedure: Cells were then washed with PBS, 0.2% FCS and 0.01% azide and analysed.
Amounts of total c-Src protein and of active phosphorylated-c-Src were quantified using FACE c-Src ELISA kit (Active Motif, CA, USA). […] At day 2, cells were incubated 30 min on ice and then 20 min at 37° C. with recombinant mouse JAM-B/Fc chimera antibody (R&D, MN, USA) at a final concentration of 5 μg/ml. Cells were then fixed and analysed with c-Src ELISA following the manufacturer's instructions (colorimetric Assay for adherent cells).

binding result: binds
B1: Recombinant Mouse JAM-B/Fc Chimera (Fc fusion, UniProt Q9JI59 29-236, looked up)
chain: FSASKDHRQEVTVIEFQEAILACKTPKKTTSSRLEWKKVGQGVSLVYYQQALQGDFKDRAEMIDFNIRIKNVTRSDAGEYRCEVSAPTEQGQNLQEDKVMLEVLVAPAVPACEVPTSVMTGSVVELRCQDKEGNPAPEYIWFKDGTSLLGNPKGGTHNNSSYTMNTKSGILQFNMISKMDSGEYYCEARNSVGHRRCPGKRMQVDVLN
notes: extracellular domain; Bought from R&D; also called sJAM-B-Fc chimera; soluble JAM-B; not shown: Fc part, detected with anti-human Fc antibody
